According to publication PMC6952110, “A divergent CheW confers plasticity to nucleoid-associated chemosensory arrays” (PLoS Genetics, 2019):

Molecular target: T1, 6His-FrzCD (M. xanthus, UniProt P43500 1-417)
T1 construct: FrzCD, cytoplasmic methyl-accepting chemotaxis protein of the Frz system, Myxococcus xanthus; also called cytoplasmic MCP of the Frz system; source: E. coli BL21(DE3); in lysate (co-purification) and purified on NiNTA resin (BLi)
T1 sequence (looked up): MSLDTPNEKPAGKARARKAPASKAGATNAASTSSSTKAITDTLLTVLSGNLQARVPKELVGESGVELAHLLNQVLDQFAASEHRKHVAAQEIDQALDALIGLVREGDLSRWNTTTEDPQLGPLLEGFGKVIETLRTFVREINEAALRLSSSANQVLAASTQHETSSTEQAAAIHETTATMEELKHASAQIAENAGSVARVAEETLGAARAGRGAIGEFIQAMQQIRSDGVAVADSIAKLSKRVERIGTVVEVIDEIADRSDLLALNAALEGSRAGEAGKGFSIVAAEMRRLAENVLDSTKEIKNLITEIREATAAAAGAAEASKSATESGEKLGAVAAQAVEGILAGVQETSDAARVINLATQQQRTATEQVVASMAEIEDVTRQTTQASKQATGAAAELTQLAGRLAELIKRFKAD
Assay: BLI; BLItz, 25°C; 6His-tagged ligand immobilised on Ni-NTA biosensors at 4 μM; GST-FrzB as analyte at 0.2 to 20 μM; Tris HCl 50 mM pH8, NaCl 300 mM; global 1:1 fit; double reference subtraction
Conditions: both partners purified

B1: GST-FrzB (natural protein, M. xanthus, UniProt P43499 1-112, looked up)
chain: MDLLFFDIGATLYGTDASQVLRIDRALPEDLTLAELGLPHRGNRAIVFDTPEGEAHLKVDAVHGVRSIPVNSLRRMPPTAGAAAYAVGVCLEEARTVLLIDLVETARTQGRH
notes: FrzB, CheW-like protein of the Frz chemosensory system, Myxococcus xanthus, Uniprot P43499; also called divergent CheW; source: E. coli BL21(DE3)
  Kd: 700 nM
